Assay results from patent US12522842B2, “Glutamine synthetase mutant having glufosinate resistance and application thereof and cultivation method therefor” (GEVOTO LLC, priority 2019, dated 2026).
Positions count from the first letter of the chain named. Numbers in names are those of the source.

B1: GmGS_WT: wild-type soybean glutamine synthetase, SEQ ID NO. 3, control (protein)
chain: MSLLSDLINLNLSDTTEKVIAEYIWIGGSGMDLRSKARTLPGPVSDPSKLPKWNYDGSSTGQAPGEDSEVIIYPQAIFRDPFRRGNNILVICDTYTPAGEPIPTNKRHDAAKVFSHPDVVAEETWYGIEQEYTLLQKDIQWPLGWPVGGFPGPQGPYYCGVGADKAFGRDIVDAHYKACLYAGINISGINGEVMPGQWEFQVGPSVGISAGDEVWAARYILERITEIAGVVVSFDPKPIQGDWNGAGAHTNYSTKSMRNDGGYEVIKTAIEKLGKRHKEHIAAYGEGNERRLTGRHETADINTFLWGVANRGASVRVGRDTEKAGKGYFEDRRPASNMDPYVVTSMIADTTILWKP
modifications: Glycine max
notes: 3, control
B2: GmGR (protein)
chain: B1 chain with S59G, H296R
modifications: GmGR
B3: OsGS_WT: wild-type rice glutamine synthetase, SEQ ID NO. 1, negative control (protein, listed as Oryza sativa)
chain: MASLTDLVNLNLSDTTEKIIAEYIWIGGSGMDLRSKARTLSGPVTDPSKLPKWNYDGSSTGQAPGEDSEVILYPQAIFKDPFRKGNNILVMCDCYTPAGEPIPTNKRHNAAKIFSSPEVASEEPWYGIEQEYTLLQKDINWPLGWPVGGFPGPQGPYYCGIGADKSFGRDIVDSHYKACLYAGINISGINGEVMPGQWEFQVGPSVGISAGDQVWVARYILERITEIAGVVVSFDPKPIPGDWNGAGAHTNYSTKSMRNDGGYEIIKSAIEKLKLRHKEHISAYGEGNERRLTGRHETADINTFSWGVANRGASVRVGRETEQNGKGYFEDRRPASNMDPYIVTSMIAETTIIWKP
B4: OsY: rice GS mutant, S59Y versus SEQ ID NO. 1 (SEQ ID NO. 19) (protein)
chain: B3 chain with S59Y
modifications: OsY
B5: OsG (protein)
chain: B3 chain with S59G
modifications: OsG
B6: OsH: rice GS mutant, S59H versus SEQ ID NO. 1 (SEQ ID NO. 13) (protein)
chain: B3 chain with S59H
modifications: OsH
B7: OsI (protein)
chain: B3 chain with S59I
modifications: OsI
B8: OsGR: rice GS mutant, S59G and H296R in SEQ ID NO. 1 (SEQ ID NO. 22) (protein)
chain: B3 chain with S59G, H296R
modifications: OsGR
B9: TaGR (protein)
chain: MALLTDLLNLDLTDSTEKIIAEYIWIGGSGMDLRSKARTLPGPVTDPSKLPKWNYDGSGTGQAPGEDSEVILYPQAIFKDPFRKGNNILVMCDCYTPAGVPIPTNKRYNAAKIFSNPDVAKEEPWYGIEQEYTLLQKDINWPLGWPVGGFPGPQGPYYCSIGADKSFGRDIVDSHYKACLFAGVNISGINGEVMPGQWEFQVGPTVGISAGDQVWVARYLLERITEIAGVVVTFDPKPIPGDWNGAGAHTNYSTESMRKDGGFKVIVDAVEKLKLKHKEHIAAYGEGNERRLTGKRETADINTFSWGVANRGASVRVGRETEQNGKGYFEDRRPASNMDPYVVTSMIAETTILWKP
modifications: TaGR

Assays:
[1] = tested on: glutamine synthetase-deficient Escherichia coli; assay: Growth of glutamine synthetase-deficient E. coli transformed with GS mutants in M9 medium containing glufosinate; assay type: cell-based; conditions: for growth of transformed GS-deficient E. coli (normal GS enzymatic activity): medium containing 0 mM glufosinate
Excerpt: According to the sequences of the nucleic acid molecules provided in Example 4, the nucleic acid sequences encoding rice GS mutants OsA, OsC, OsD, OsE, OsF, OsG, OsH, OsI, OsK, OsP, OST, OsV, and OsY were synthesized using chemical synthesis method. Restriction digestion sites (Pac1 and Sbf1) were introduced at both ends thereof, and after restriction digestion, they were linked under the action of ligase to an expression vector (such as pADV7 vector, whose structure is shown in FIG. 4) that was subjected to the same restriction digestion treatment. Then, glutamine synthetase-deficient Escherichia coli was transformed with the resultant. After verification, positive clones were picked up and inoculated in M9 medium containing different concentrations of glufosinate to grow, and the growth status of defective Escherichia coli was observed.
With wild-type rice GS (its amino acid sequence shown in SEQ ID NO. 1 and its encoding gene shown in SEQ ID NO. 4) as a negative control, the glufosinate resistance for the GS mutant OsA (S59A, wherein the amino acid S at site 59 of the rice GS is mutated into A), OsC (S59C), OsD (S59D), OsE (S59E), OsF (S59F), OsG (S59G), OsH (S59H), OsI (S591), OsK (S59K), OsP (S59P), OsT (S59T), OsV (S59V), OsY (S59Y) was detected.
With reference to the detection method of Experimental Example 1, glufosinate resistance of the rice GS mutant OsGR (S59G and H296R, the amino acid S at site 59 of rice GS is mutated into G and the amino acid H at site 296 is mutated into R), the wheat GS mutant TaGR (S59G and H296R, the amino acid S at site 59 of wheat GS is mutated into G and the amino acid H at site 296 is mutated into R), the soybean GS mutant GmGR (S59G and H296R, the amino acid S at site 59 of soybean GS is mutated into G and the amino acid H at site 296 is mutated into R) provided in Example 2 was verified.
With reference to Experimental example 1, the glufosinate resistance of rice GS mutants OA, OD, OE, OG, OI, OK, OM, OP, OQ, OR, OS, OT, and OV provided in Example 3 was detected according to the following method.
With wild-type rice GS as a negative control, the glufosinate resistance of GS mutants OA (H296A, amino acid H at site 296 of rice GS is mutated into A), OD (H296D), OE (H296E), OG (H296G), OI (H2961), OK (H296K), OM (H296M), OP (H296P), OQ (H296Q), OR (H296R), OS (H296S), OT (H296T), OV (H296V) was detected.

[2] = target: rice GS (glutamine synthetase); assay: Enzymatic activity of purified rice GS: kinetic parameters and glufosinate IC50; assay type: biochemical, rice (Oryza sativa); conditions: inhibition of rice GS by glufosinate
Excerpt: OsC, OsF, OsG, OsH, OsP, and OsY provided in Example 1, OR provided in Example 3, and rice GS mutant OsGR and wheat GS mutant TaGR provided in Example 2 were detected for their enzymatic kinetic parameter, and enzymatic kinetic parameter in the presence of glufosinate, using wild-type rice GS OsGS_WT and wild-type wheat GS TaGS_WT as controls according to the following method.
The nucleic acid sequences encoding the above mutants were each cloned into a prokaryotic expression vector pET32a, and the clone was verified by sequencing.
The mutant enzyme protein was purified with 6His by a standard method, and its concentration was determined with a protein concentration assay kit with Bradford method. The protein was stored in a protein storage solution.
ELIASA (Detielab, HBS-1096A), glufosinate, substrate sodium L-glutamate (CAS: 6106-04-3).
(1) The composition of a reaction solution for determination of enzymatic activity of glutamine synthetase were as follows: 100 mM Tris-HCl (pH 7.5), 10 mM ATP, 20 mM sodium L-glutamate, 30 mM hydroxylamine, 20 mM MgCl2. 100 μl of the reaction solution after mixed thoroughly was preheated at 35° C. for 5 min, and 10 μl of mutant protein solution (protein concentration of 200 μg/ml) was added to start the reaction. After reaction at 35° C. for 30 min, 110 μl of color developing solution (55 g/L FeCl3·6H2O, 20 g/L trichloroacetic acid, 2.1% concentrated hydrochloric acid) was added to terminate the reaction. The absorbance at 540 nm was measured.

[3] = media containing 2 mM, 5 mM, 10 mM, and 20 mM glufosinate
[4] = media containing 10 mM, 20 mM and 300 mM glufosinate
[5] = medium containing 10 mM glufosinate
[6] = medium with 50 mM/100 mM glufosinate

Molecule | growth of transformed E. coli (glufosinate resistance) [1, 3] | growth of transformed GS-deficient E. coli (normal GS enzymatic activity) [1] | growth of transformed E. coli (glufosinate resistance) [1, 4] | growth of transformed E. coli (glufosinate resistance) [1, 5] | IC50 ([2]; read-out: glufosinate resistance parameter IC50) [µM] | growth of transformed E. coli (glufosinate resistance) [1, 6] | glufosinate resistance parameter IC50 [2] | growth of transformed E. coli (glufosinate resistance) ([1]; medium containing 300 mM glufosinate)
B1 | could hardly grow | could normally grow | – | – | – | – | – | –
B2 | significantly grew | could normally grow | – | – | – | – | – | –
B3 | – | could normally grow | could hardly grow | could hardly grow | 700 | – | – | –
B4 | – | could normally grow | – | significantly superior to that of the negative control | – | significantly grew | much higher than those of the wild-type controls | –
B5 | – | could normally grow | – | significantly superior to that of the negative control | – | significantly grew | – | –
B6 | – | could normally grow | – | significantly superior to that of the negative control | – | significantly grew | much higher than those of the wild-type controls | –
B7 | – | could normally grow | – | significantly superior to that of the negative control | – | significantly grew | – | –
B8 | – | could normally grow | grew significantly | – | – | – | much higher than those of the wild-type controls | grew significantly
B9 | significantly grew | could normally grow | – | – | – | – | – | –
